The record followed here is paper PMC4451460.

What is called Kd is the equilibrium constant for the complex coming apart. A high value points to lower affinity.

In assay [1] the target is HTT(1-17) peptide, the 17 N-terminal residues of huntingtin (human) (UniProt P42858). Briefly: ITC; isothermal calorimetry of C4 scFv with HTT(1-17) and truncated peptides; conditions not shown (Fig. S3). A general note: ITC needs no label: the signal is the heat of the interaction.
Assay [2] concerns the target truncated peptide HTT(1-14) (human) (UniProt P42858). Described as above.

In assay [1], C4 single-chain Fv antibody (C4 scFv) displayed a Kd of 50 nM. Moreover, in assay [2], the fold decrease in binding affinity compared to HTT(1-17) worked out at 10 fold.
